Patent US20220048967A1 (published 2022)
Numbered stars: 1 amine (or outer) side, 2 acyl side, 3 side chain; on linkers, the order of the positions; unused ones are H or OH. Square brackets hold non-standard residues; d marks the D form. Side chains are listed from the residue outwards. Ends that are not written are not given here. * marks the point of attachment. C20 diacid = O=C(O)CCCCCCCCCCCCCCCCCCC(=O)*; γGlu = O=C(O)[C@H](CCC(=O)[*:2])N[*:1]; AEEA = NCCOCCOCC(=O)O; Aib = CC(C)(N)C(=O)O

T1: human GIP receptor (human, UniProt P48546 22-466)
T1 sequence (looked up): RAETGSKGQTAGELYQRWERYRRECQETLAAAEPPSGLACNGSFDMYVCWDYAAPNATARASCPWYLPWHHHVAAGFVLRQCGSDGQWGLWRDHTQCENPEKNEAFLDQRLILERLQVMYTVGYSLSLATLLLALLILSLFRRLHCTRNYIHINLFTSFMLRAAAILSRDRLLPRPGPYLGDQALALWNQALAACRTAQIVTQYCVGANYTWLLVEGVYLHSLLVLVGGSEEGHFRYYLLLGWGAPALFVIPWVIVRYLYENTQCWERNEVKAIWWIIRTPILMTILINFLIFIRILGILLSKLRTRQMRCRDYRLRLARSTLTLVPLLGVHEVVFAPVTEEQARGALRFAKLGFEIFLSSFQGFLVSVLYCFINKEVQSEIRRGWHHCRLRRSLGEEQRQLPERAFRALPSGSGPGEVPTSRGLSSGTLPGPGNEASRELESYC


Experiments:
human GIP receptor = biological target: T1, human GIP receptor; assay: cell-based or functional assay
human GLP-1 receptor = human GLP-1 receptor (human, UniProt P43220 24-463); assay: cell-based or functional assay

Binder | hGIPR cAMP EC50 ratio (human GIP receptor) | hGIPR cAMP Rel EC50 (human GIP receptor) [nM] | hGLP1R cAMP EC50 ratio (human GLP-1 receptor) | hGLP1R cAMP Rel EC50 (human GLP-1 receptor) [nM]
Y[Aib]EGTFTSDYSILLDKIAQ[Aib]AFIEYLIEGGPSSGK([AEEA-AEEA-γGlu-C20 diacid])PPPS-NH2 (N-terminus assumed; SMILES CC[C@H](C)[C@H](NC(=O)[C@H](CCCCN)NC(=O)[C@H](CC(=O)O)NC(=O)[C@H](CC(C)C)NC(=O)[C@H](CC(C)C)NC(=O)[C@@H](NC(=O)[C@H](CO)NC(=O)[C@H](Cc1ccc(O)cc1)NC(=O)[C@H](CC(=O)O)NC(=O)[C@H](CO)NC(=O)[C@@H](NC(=O)[C@H](Cc1ccccc1)NC(=O)[C@@H](NC(=O)CNC(=O)[C@H](CCC(=O)O)NC(=O)C(C)(C)NC(=O)[C@@H](N)Cc1ccc(O)cc1)[C@@H](C)O)[C@@H](C)O)[C@@H](C)CC)C(=O)N[C@@H](C)C(=O)N[C@@H](CCC(N)=O)C(=O)NC(C)(C)C(=O)N[C@@H](C)C(=O)N[C@@H](Cc1ccccc1)C(=O)N[C@H](C(=O)N[C@@H](CCC(=O)O)C(=O)N[C@@H](Cc1ccc(O)cc1)C(=O)N[C@@H](CC(C)C)C(=O)N[C@H](C(=O)N[C@@H](CCC(=O)O)C(=O)NCC(=O)NCC(=O)N1CCC[C@H]1C(=O)N[C@@H](CO)C(=O)N[C@@H](CO)C(=O)NCC(=O)N[C@@H](CCCCNC(=O)COCCOCCNC(=O)COCCOCCNC(=O)CC[C@H](NC(=O)CCCCCCCCCCCCCCCCCCC(=O)O)C(=O)O)C(=O)N1CCC[C@H]1C(=O)N1CCC[C@H]1C(=O)N1CCC[C@H]1C(=O)N[C@@H](CO)C(N)=O)[C@@H](C)CC)[C@@H](C)CC) [Example 44] | 1.11 | 0.128 | 0.0918 | 0.752
Y[Aib]EGTFTSDYSILLDKIAQ[Aib]AFIEYLIEGGPSSGAPPPK([AEEA-AEEA-γGlu-C20 diacid])-NH2 (N-terminus assumed; SMILES CC[C@H](C)[C@H](NC(=O)[C@H](CCCCN)NC(=O)[C@H](CC(=O)O)NC(=O)[C@H](CC(C)C)NC(=O)[C@H](CC(C)C)NC(=O)[C@@H](NC(=O)[C@H](CO)NC(=O)[C@H](Cc1ccc(O)cc1)NC(=O)[C@H](CC(=O)O)NC(=O)[C@H](CO)NC(=O)[C@@H](NC(=O)[C@H](Cc1ccccc1)NC(=O)[C@@H](NC(=O)CNC(=O)[C@H](CCC(=O)O)NC(=O)C(C)(C)NC(=O)[C@@H](N)Cc1ccc(O)cc1)[C@@H](C)O)[C@@H](C)O)[C@@H](C)CC)C(=O)N[C@@H](C)C(=O)N[C@@H](CCC(N)=O)C(=O)NC(C)(C)C(=O)N[C@@H](C)C(=O)N[C@@H](Cc1ccccc1)C(=O)N[C@H](C(=O)N[C@@H](CCC(=O)O)C(=O)N[C@@H](Cc1ccc(O)cc1)C(=O)N[C@@H](CC(C)C)C(=O)N[C@H](C(=O)N[C@@H](CCC(=O)O)C(=O)NCC(=O)NCC(=O)N1CCC[C@H]1C(=O)N[C@@H](CO)C(=O)N[C@@H](CO)C(=O)NCC(=O)N[C@@H](C)C(=O)N1CCC[C@H]1C(=O)N1CCC[C@H]1C(=O)N1CCC[C@H]1C(=O)N[C@@H](CCCCNC(=O)COCCOCCNC(=O)COCCOCCNC(=O)CC[C@H](NC(=O)CCCCCCCCCCCCCCCCCCC(=O)O)C(=O)O)C(N)=O)[C@@H](C)CC)[C@@H](C)CC) [Example 48] | 0.863 | 0.168 | 0.0966 | 0.691
Y[Aib]EGTFTSDYSILLDKIAQ[Aib]AFIEYLIEGGPSSGAPPK([AEEA-AEEA-γGlu-C20 diacid])S-NH2 (N-terminus assumed; SMILES CC[C@H](C)[C@H](NC(=O)[C@H](CCCCN)NC(=O)[C@H](CC(=O)O)NC(=O)[C@H](CC(C)C)NC(=O)[C@H](CC(C)C)NC(=O)[C@@H](NC(=O)[C@H](CO)NC(=O)[C@H](Cc1ccc(O)cc1)NC(=O)[C@H](CC(=O)O)NC(=O)[C@H](CO)NC(=O)[C@@H](NC(=O)[C@H](Cc1ccccc1)NC(=O)[C@@H](NC(=O)CNC(=O)[C@H](CCC(=O)O)NC(=O)C(C)(C)NC(=O)[C@@H](N)Cc1ccc(O)cc1)[C@@H](C)O)[C@@H](C)O)[C@@H](C)CC)C(=O)N[C@@H](C)C(=O)N[C@@H](CCC(N)=O)C(=O)NC(C)(C)C(=O)N[C@@H](C)C(=O)N[C@@H](Cc1ccccc1)C(=O)N[C@H](C(=O)N[C@@H](CCC(=O)O)C(=O)N[C@@H](Cc1ccc(O)cc1)C(=O)N[C@@H](CC(C)C)C(=O)N[C@H](C(=O)N[C@@H](CCC(=O)O)C(=O)NCC(=O)NCC(=O)N1CCC[C@H]1C(=O)N[C@@H](CO)C(=O)N[C@@H](CO)C(=O)NCC(=O)N[C@@H](C)C(=O)N1CCC[C@H]1C(=O)N1CCC[C@H]1C(=O)N[C@@H](CCCCNC(=O)COCCOCCNC(=O)COCCOCCNC(=O)CC[C@H](NC(=O)CCCCCCCCCCCCCCCCCCC(=O)O)C(=O)O)C(=O)N[C@@H](CO)C(N)=O)[C@@H](C)CC)[C@@H](C)CC) [Example 47] | 0.654 | 0.287 | 0.089 | 0.702
Y[Aib]EGTFTSDYSILLDKIAQ[Aib]AFIEYLIEGGPSSGAPK([AEEA-AEEA-γGlu-C20 diacid])PS-NH2 (N-terminus assumed; SMILES CC[C@H](C)[C@H](NC(=O)[C@H](CCCCN)NC(=O)[C@H](CC(=O)O)NC(=O)[C@H](CC(C)C)NC(=O)[C@H](CC(C)C)NC(=O)[C@@H](NC(=O)[C@H](CO)NC(=O)[C@H](Cc1ccc(O)cc1)NC(=O)[C@H](CC(=O)O)NC(=O)[C@H](CO)NC(=O)[C@@H](NC(=O)[C@H](Cc1ccccc1)NC(=O)[C@@H](NC(=O)CNC(=O)[C@H](CCC(=O)O)NC(=O)C(C)(C)NC(=O)[C@@H](N)Cc1ccc(O)cc1)[C@@H](C)O)[C@@H](C)O)[C@@H](C)CC)C(=O)N[C@@H](C)C(=O)N[C@@H](CCC(N)=O)C(=O)NC(C)(C)C(=O)N[C@@H](C)C(=O)N[C@@H](Cc1ccccc1)C(=O)N[C@H](C(=O)N[C@@H](CCC(=O)O)C(=O)N[C@@H](Cc1ccc(O)cc1)C(=O)N[C@@H](CC(C)C)C(=O)N[C@H](C(=O)N[C@@H](CCC(=O)O)C(=O)NCC(=O)NCC(=O)N1CCC[C@H]1C(=O)N[C@@H](CO)C(=O)N[C@@H](CO)C(=O)NCC(=O)N[C@@H](C)C(=O)N1CCC[C@H]1C(=O)N[C@@H](CCCCNC(=O)COCCOCCNC(=O)COCCOCCNC(=O)CC[C@H](NC(=O)CCCCCCCCCCCCCCCCCCC(=O)O)C(=O)O)C(=O)N1CCC[C@H]1C(=O)N[C@@H](CO)C(N)=O)[C@@H](C)CC)[C@@H](C)CC) [Example 46] | 0.828 | 0.172 | 0.0969 | 0.687
Y[Aib]EGTFTSDYSILLDKIAQ[Aib]AFIEYLIEGGPSSGAK([AEEA-AEEA-γGlu-C20 diacid])PPS-NH2 (N-terminus assumed; SMILES CC[C@H](C)[C@H](NC(=O)[C@H](CCCCN)NC(=O)[C@H](CC(=O)O)NC(=O)[C@H](CC(C)C)NC(=O)[C@H](CC(C)C)NC(=O)[C@@H](NC(=O)[C@H](CO)NC(=O)[C@H](Cc1ccc(O)cc1)NC(=O)[C@H](CC(=O)O)NC(=O)[C@H](CO)NC(=O)[C@@H](NC(=O)[C@H](Cc1ccccc1)NC(=O)[C@@H](NC(=O)CNC(=O)[C@H](CCC(=O)O)NC(=O)C(C)(C)NC(=O)[C@@H](N)Cc1ccc(O)cc1)[C@@H](C)O)[C@@H](C)O)[C@@H](C)CC)C(=O)N[C@@H](C)C(=O)N[C@@H](CCC(N)=O)C(=O)NC(C)(C)C(=O)N[C@@H](C)C(=O)N[C@@H](Cc1ccccc1)C(=O)N[C@H](C(=O)N[C@@H](CCC(=O)O)C(=O)N[C@@H](Cc1ccc(O)cc1)C(=O)N[C@@H](CC(C)C)C(=O)N[C@H](C(=O)N[C@@H](CCC(=O)O)C(=O)NCC(=O)NCC(=O)N1CCC[C@H]1C(=O)N[C@@H](CO)C(=O)N[C@@H](CO)C(=O)NCC(=O)N[C@@H](C)C(=O)N[C@@H](CCCCNC(=O)COCCOCCNC(=O)COCCOCCNC(=O)CC[C@H](NC(=O)CCCCCCCCCCCCCCCCCCC(=O)O)C(=O)O)C(=O)N1CCC[C@H]1C(=O)N1CCC[C@H]1C(=O)N[C@@H](CO)C(N)=O)[C@@H](C)CC)[C@@H](C)CC) [Example 45] | 1.75 | 0.106 | 0.0569 | 1.03
Y[Aib]EGTFTSDYSILLDKIAQ[Aib]AFIEYLIEGGPSSK([AEEA-AEEA-γGlu-C20 diacid])APPPS-NH2 (N-terminus assumed; SMILES CC[C@H](C)[C@H](NC(=O)[C@H](CCCCN)NC(=O)[C@H](CC(=O)O)NC(=O)[C@H](CC(C)C)NC(=O)[C@H](CC(C)C)NC(=O)[C@@H](NC(=O)[C@H](CO)NC(=O)[C@H](Cc1ccc(O)cc1)NC(=O)[C@H](CC(=O)O)NC(=O)[C@H](CO)NC(=O)[C@@H](NC(=O)[C@H](Cc1ccccc1)NC(=O)[C@@H](NC(=O)CNC(=O)[C@H](CCC(=O)O)NC(=O)C(C)(C)NC(=O)[C@@H](N)Cc1ccc(O)cc1)[C@@H](C)O)[C@@H](C)O)[C@@H](C)CC)C(=O)N[C@@H](C)C(=O)N[C@@H](CCC(N)=O)C(=O)NC(C)(C)C(=O)N[C@@H](C)C(=O)N[C@@H](Cc1ccccc1)C(=O)N[C@H](C(=O)N[C@@H](CCC(=O)O)C(=O)N[C@@H](Cc1ccc(O)cc1)C(=O)N[C@@H](CC(C)C)C(=O)N[C@H](C(=O)N[C@@H](CCC(=O)O)C(=O)NCC(=O)NCC(=O)N1CCC[C@H]1C(=O)N[C@@H](CO)C(=O)N[C@@H](CO)C(=O)N[C@@H](CCCCNC(=O)COCCOCCNC(=O)COCCOCCNC(=O)CC[C@H](NC(=O)CCCCCCCCCCCCCCCCCCC(=O)O)C(=O)O)C(=O)N[C@@H](C)C(=O)N1CCC[C@H]1C(=O)N1CCC[C@H]1C(=O)N1CCC[C@H]1C(=O)N[C@@H](CO)C(N)=O)[C@@H](C)CC)[C@@H](C)CC) [Example 43] | 1.28 | 0.112 | 0.0777 | 0.862
